The values that follow come from the DeepSol protein solubility set.

The data set in a line: soluble on expression in E. coli; label from the status in PepcDB or PDB records.
With “MSLTKAYTIVIKLGSSSLVDESTKEPKLSIMTLIVETVTNLKRMGHKVIIVSSGGIAVGLDALNIPHKPKQLSEVQAIAAVGQGRLIARWNMLFSQYGEQTAQILLTRNDILRWNQYNNARNTINELLAMGVIPIVNENDTLSISEIEFGDNDTLSAITAALVGADFLFLLTDVDCLYTDNPRTNPDARPIVLVPELSEGLPGVNTSSGSGSEVGTGGMRTKLIAADLASNAGIETIVMKSDRPEYVPKIVDYIQHHFRPPRHIGNGTQQQFLDLQDTELEQLRRYDVPMHTKFLANDNKHKLKNREFWILHGLITKGAIIIDENSYDKLLSKDMASLTPNAVIEVRDNFHELECVDLKIGQRLPNGELDISKPIQSVGCVRSNYTSLELAKIKGLPSEKIHDVLGYSVSEYVAHRENIAFPPQFEGHHHHHH”, the “soluble on expression in E. coli” value is listed as “not soluble”. To “MSSNLQLVETFDSRQFVVARWNRNDTTAMVPSAIAVVVFVESVEYKLGCKEKIGYSPTPEDQDQFMILQMESIDEANRICHDSIAKGFAINNTKIVFTPLLGLNGFRLQDAIDFMKTSQPHFNNDELLEVLTMAICQELPERLKILEDGFSFIEQGVSELIQNSACEMFGSFASPVRRNGYSDIDINVESVSAPGQRVSTNVRPLNEVVANPKCLITHPLTKSELETYPQEEIIKILYRCFNENSAFKTKFEMRFLPARTPIIVFKNIEVEGMNVSYDLSVHNQISVEKASLLHEFIVKDKSKGSRMKNAMMFIVHWAKSNKLLSGDYPEEKLEVKTKLNSYIINQLVIHFVQAATNKVHVNPQAKRDSRVNEYNFDTLFGDYCKFFRELFKYYANFDFTNKAIYGKKAMQKKTLSSAHGGVEESPLMLMDPMDITHNISAKVTEDAVKLLNGLIRNALFILKQNHFHINYLLETNTMATMLMKSREPKISISTRVTDGAEHQYLSVQLPAVVITSSDLFLLLTRVLRFNVCPNEQGPSVVDLCTPTGAIFLVTSRAWVGRRNTKRALKNSRHDLTPLQIDVMCSDKYDYEEDIAELRISMSTVPGTRIRLACIDIMRGQVSEVRDAIHFLIDQFINNNYDDLEKNGVQTISRIPIAAPTWP” belongs “not soluble”. The value for “MSLNKVLVVEDEQLLAQNLQDYLSAQGLEVRIAHDGAEGIGLAETFAPDVLVFDYRLPDMEGFEVLDAVRQNRTCHFVLITGHPTAEVCERARQLGVSHILFKPFPLAELARAVCDLLGIQREAKPGASPSEGFVERRQSRTESFPLQLYDGSWVLADRRRNRSEAMAPDDDQMLTGEEGHHHHHH” was “not soluble”; that for “MDYTIENNMIKVVISDHGAEIQSVKSAHTDEEFMWQANPEIWGRHAPVLFPIVGRLKNDEYTYKGKTYHLGQHGFARNADFEVENHTKESITFLLKDNEETRKVYPFKFEFRVNYNLMNNLLEENFSVVNKSDETMIFGVGGHPGFNLPTDHGENKEDFYFDMHPSVTRVRIPLKDASLDWNNRSLAPTDSLIALSDDLFKDDALIYELRGNDNKVSLRTDKNKFHVNVWTRDAPFVGIWSQYPKTDNYVCIEPWWGIADRDDADGDLEHKYGMNHLKPGKEFQAGFSMTYHSTTDEVKLEHHHHHH” was “soluble”. For “EDICFLLADGRVYVAANQSFEPELLLSSSADSRLYVTDRGLFICAENRIYFIEKGRKTTQFPIADVLGVGAMNESNTAYIALGEEGLASLLLAEGSTAEAMPVAFDGPGDNDFYEMRFSHGRLYAASGLWGTNLMGHAGMVKLYDGNRWTNFDKKTVQEQLGGGFSFNDAIDIAVSNGDPDHFFVGTWGNGLFEFKDGKAIARYSGNETAIAECNPGDARVKAIAFDNKGNLWGTLGAVGKNIFMYDPQSSTWHSFSYPDVANLASFGNMIILPNGDKWVNILHRSGGSTRKGVLIFNDRGTPETTSDDSHLYVEQFVNRLGAAIGHKTIYAMAVDHNGSVWMGSDIGIFGVYNAAGVLSSTSTPIAVRPVGGEEPNLYYVLDKVTVTDIVVDKLNHKWVATQGTGLYLLSEDCSKILAQFTVENSPLLSNNILSLALNDDNGLLYIGTADGLMTFQTGTGSGSASELDGVYVYPNPLRPEYPDGVTIAGLQAGCSVKITDTTGRLLYQTESVTTEVKWNARGADGNRVASGVYAVAVYDPVSKKSKLIRFAVIR”, the “soluble on expression in E. coli” value is “not soluble”. Turning to “GMDAGRGAEHDEAVTSDDSASVEVPRRATPADAATVAQMLHDFNTEFGAPTPGTDELASRLSHLLAGEDVVVLLAGEPPTGLAVLSFRPNVWYPGPVAILDELYVRPGRRGHRLGSALLAASCGLVRSRGGALLEINVDGEDTDARRFYEARGFTNTEPNGTEPMLYYYREL”, the “soluble on expression in E. coli” value is listed as “soluble”.

In the case of “QMEEGFVCFKLLYDVKKNRISIDDAVAENGVLPLMKHISWQFDKLPHMLIAGGTGGGKTYFMLTIIKACVGLGADVRILDPKNADLADLEEVLPKKVYSQKNGILMCLRKSVDGMMERMDEMKQMSNYKTGENYAYLGLKPVFIFFDEYVAFMDLLDMKERNEALSYMKQLVMLGRQAGYFLVLGAQRPDA”, the “soluble on expression in E. coli” value was “not soluble”.

Take “MSLNYSNDIFEEDTFNPGNDNLFLKTASVGTGEYFILPRLCAHLAKNAPKFVLKISSLSEYLSLEYLLMSELDFAIGPGFVETGNNIIRELLFEEEAVCIMHKSHPLANQELTQDMYLQAEHVDIQFSYMGNENILYKALQGYHQRNIKVIVPNIISALEVVYHTNFITTVPRTLAVTFKDRYQIELHPFPFPKKTFLVNFYYHKRLSNHKPLQWVLDVIKKYCCVNHEGHHHHHH”: the “soluble on expression in E. coli” value is “not soluble”. To “GPGSMSQEGGKSEPDANEKEQRNQKLRLGLEAMFCAQEIPSEKRTDIESDGEEVPPSITRDEDRYRQVAEAILRIDTKSKIIEINNIRLFSVAEIELDKLTECTSLSLRKNLLHDLIPFPEDLADRLDELDLFDNKIRKLNDFFETVTVPGDPPTTKTLPNAYKCLTKLDLSYNQIREIGGLDSIGGTLRELYLVENKIKEVKNLDSLVNLELLELGGNRLRAIGSGLEKLTKLKQLWLGKNKISSIGTALHKLVSLEILSLQANRITSVDAENFLGAKANPNLREVYLSENGLTSVGNVRHLSTIKIIDFSFNSICSIDAEEINPQTMPKLEEFWLTDGNIADWEEVGKLSGFTSTLKTVYLERNPIEEDKRYRDKVYMYLPFLVQIDSWPIVNKGNLEADRKRKA” belongs “not soluble”; to “MREVISIHIGQAGVQIGNACWELYCLEHGIQPDGQMPSDKSLGGSDDSFSTFFSETGSGRHVPRAVMVDLEPTVIDEIRTGTYRSLFHPEQLITGKEDAANNYARGHYTIGKEIIDLTLDRIRRLADNCTGLQGFLVFHSFGGGTGSGFTSLLMERLSVDYGKKAKLEFSIYPAPQVSTAVVEPYNSILTTHTTLEHSDCSFMVDNEAIYDICRRNLDIERPSYTNLNRLIGQIVSSITASLRFDGALNVDLTEFQTNLVPYPRIHFPLATFSPVISAEKAYHEQLSVAEITNMCFEPHNQMVKCDPRHGKYMAVCLLFRGDVVPKDVNAAIATIKTKRSIQFVDWCPTGFKVGINYQPPTVVPGGDLAKVPRAVCMLSNTTAIAEAWARLDHKFDLMYAKRAFVHWYVGEGMEEGEFSEAREDLAALEKDYEEVGVDSMEDNGEEGDEY”, “not soluble”. To “MLFNSFQAKIDPSLADLFRNSDKEPFPAMTHELPPEKSLKARLLEQEDERISNVLAHEKRFSTEPVVIDDVFMSRLCVDSQPGCSRIPDIDIANVFRDDLESCTLSSSEDEEEEEEPIGQISTFEMLHAPRKPIVWSEQELSDFDMKSRLLDMRMDHWDLARIANVPKRIAKGETVNLRMPRYSAEVVKQRIAKGVTDIFGHFSLVPHTLTKSHKPVAERKQILIERYHDLMNDFDYATRPGSVESKKYANLTKRLNLCNDFLSAPKLPHRLFPRLIIRSIRPPETPKEPVKRKMRESESDDSVIIIPRKIEKEKPRPTTENVVLKKVEMEKKRPRSPELVPKKIVMEKERPSSPDSEAEEREHNLRIEKERHQKELEFRREALRKREQEREEHKKRAQEELRRQMTAALEESTRRQAEMNRQIEDEARKRDELQRIAEEKKRKQLLEDQCRAKQEKEKRDAEELEQMRLNIARLAGTKDVENALKSPSLVEIVPPSDARAFEMIKWNAVKCKIPENWEKRKDKFYRVFEWPSDAAQRDIERDEVVSIPRSKPIVIPQEDTYITRNRIPLKLPPKVKQAVPALVVRNSNNATRTVVAATVNENGIQWPAETINIDEVVREIRGLMAPTRRNFAISLSPKTDEIDYQAINLNRLKSGIVYPFYFSDGLYWPLVFLKSSKNGKPEAQRHVEALTSCKSFSGKYASRYLLTTTKEEDSATKKFEDAYADSDGDWADYSTKPGRFSNRAGFKPHYDTSNDSFEVQKQRAVDSLNSQYEKERNELDAFGRYTDEYRKRKDRAQYQNHIKTHLRELVRDARLDAFSFKEEFKDFEGGFEDYPGTRVEPYENDWYSHGYTLYSHTRDAAYADYMHDVCKPYEDMLPPTEYHEIFNEWCFTPMLASLHYQLKKNAFDVLSPQDVKDMEARHRKYIGLVQKERKFSLEQALDVCKLTDYDKRQWTILHDQLVTHFKDFPSISGLVYDRNTNLLANVNRNLKHLFSTIYRDDSPPDDQF” belongs “soluble”; to “MARTQYRAEEDDDEKVVDVINEDEEDENKSDIDEDFDEDEDEDEDKQESVKAALEKERKRGEALTNLERQAKRLGVSFDAAKAIKSGMSVEKAKNVVLTAAVSKSASLKLSTTAPHRDGTSKEKIHAKWETAWRAIK”, “not soluble”; to “MSLTERVLVTGGGGFVACHLIQQLLASGNVVNTTVRNLTNRAKVLPLLTLQKQHPGKLYLFEADLLVDGAFDAPMHDCTVVHHVASPFLLPEKIKDGRREMLEPALLGTRNVLSSVDKTPSVLRVVMTSTVGAIFGDYIDVLHMKNKTLTEDYFNTSSTLETNPYHYAKVEAEKEAWRICEKQTRWSLVTINPGMILGPSLTPASDSGSLFLLDEMFRGYFFYGMPDLSLTTVDVRDVAAAHIIAANKVDAQGRYILAEQHMISFVEIAGIVRRLHRRPWLLPRYRIPDAIVRLIGPFFGLTQDYLSKHLGIRFVVDNQRSLNDLGIKYRSITETLTDHYRCWDMQRQLNEGHHHHHH”, “soluble”. The value for “SMPVRRVRVVKQEAGGLGISIKGGRENRMPILISKIFPGLAADQSRALRLGDAILSVNGTDLRQATHDQAVQALKRAGKEVLLEVKFIREVNTVV” was “soluble”; that for “MGSDKIHHHHHHMKSIKAADLHAAVRDMIMDANRVLGKDVYNAFQTCMQQETTDSGKEVLRQLLENADLAAQSGLALCQDTGVAVFFVEMGEEVRMEGGGLKETLNAAMVEAYNKAFLRKSMCHPLTRKNTGDNTPAVIHVELVPGDTLKVRYMAKGGGSENMSRCTMLTPAQGWQGIKDFVVRRMAEAGPNPCPPTIVGVGIGGTFDLAPSLAKGALFRRVDDVHPDPEIAAMEKELLDEINALGIGPMGLGGKTTCLAVKIAMHPCHIASLPLAVNVQCHSSRHKEVVF” was “not soluble”. For “MGSDKIHHHHHHMQVPSGAADLPEQMGTKAKFWFDDSRRLFKEGRPGTGENWAEVIAAELAALLGLPHATYSLAEYEGRRGVVTESFVPSGARLILGNELIGFAARETVSRHTRGQAHTIGRLSSLLNRPQVALPSGWVSPTSFFNAADVMSGYLLLDALIANQDRHEENWGLINSHGAIYLAPTFDHASSLGRNETDQRRIQKLDANHPDHGVLGYARRAKVPIYDGMGPLQSGEAFFAFARSCPDKGAYWLNRLHELDPSSFLALLNRIPVGWITDPARRFAAELLKVNRDRLLDEK”, the “soluble on expression in E. coli” value was “not soluble”. The value for “MAHHHHHHMRPSSHRRPKSSAASDVGRRIRYSDAPPWDRSIRVNGDRALSAGRASRRGPEMMKAKLQGTPARPSHCNLVTTQAATLVATVPPVNEPQVELMSQLQDVVVRLSQSAVGEKQRLAHMQQRLDAYAALMREQDRMIDELRGMNIRLQKERDALILFRQQSLNHDLHLMNNLENDGGIDEEARRAYAKYEGQNNSYGTPCNGSLGAMTPRSRGFVRSLVAQLRDERRKRLEVEEQSSRMIGEQQLTIQRLEDRLRPQVVAPRSVLVARLESPHVSSHQRASNEEKDAVNTPLQCPCVDSVSAPMSSPNFSVVNQEKRLTEVNPMAPAVPPIPLPERNKEAVITEQVHQSPAVSMDQQITPPLEVPLKIHSTSYDDAAAILFDIRKRHGL” was “not soluble”.
